# According to paper PMC6710073 (Nature chemical biology, 2019):
# Where two headings read alike, the source gives them in different places. Non-standard residues stand in square brackets, D forms with d. No end group written: not given here. Cba = N[C@@H](CC1CCC1)C(=O)O
# Experiments:
# Assay in all cases: BLI
# [1] = target: T1, SUMO-25–109MDM2 (UniProt Q00987 25-109)
# [2] = target: T1, SUMO-25–109MDM2; remark: listed apart in the source
# [3] = target: T1, SUMO-25–109MDM2; remark: listed apart in the source
binder,measurement,setting,value
GSGSGSGSGSGSSQETFSDLWKLLPEN (not fully specified; D-biotin on its N terminus) [biotinylated 118: modified 15–29 p53 peptide with an N-terminal Gly-Ser linker],binding result,[1],binds
LTFEHY[hexylalanine]AQ[Cba]TSK [compound 37],Kd,[2],500 pM
"LTFEHYWAQFTSK (also: biotinylated, position not given here) [compound 6]",binding result,[3],binds
